We go through one molecule from PMC5419587 (Virology, 2017).

For this assay, the target named is T1, SAMD9 1-385, purified (human, UniProt Q5K651 1-385).
T1 sequence (looked up): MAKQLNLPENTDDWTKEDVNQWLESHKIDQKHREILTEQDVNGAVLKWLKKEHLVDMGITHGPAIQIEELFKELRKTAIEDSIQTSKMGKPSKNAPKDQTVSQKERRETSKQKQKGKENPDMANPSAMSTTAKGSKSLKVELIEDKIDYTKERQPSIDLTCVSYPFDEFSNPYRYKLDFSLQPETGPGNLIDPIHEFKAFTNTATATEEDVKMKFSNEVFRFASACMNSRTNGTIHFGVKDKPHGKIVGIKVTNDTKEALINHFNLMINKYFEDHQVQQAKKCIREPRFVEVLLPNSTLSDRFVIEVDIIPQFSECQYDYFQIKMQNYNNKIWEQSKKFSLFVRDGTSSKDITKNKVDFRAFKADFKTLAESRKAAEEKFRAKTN
Nature of the assay: SPR.

B1: MYXV M062 protein, purified (natural protein)
chain: MGVQHKLDIFLVSEGIAIKEANLLKGDSYGCTIKIKLDKEKTFKFVIVLEPEWIDEIKPIYMKVNDESVELELDYKDAIKRIYSAEVVLCSDSVINLFSDVDVSYTCEYPTIKVNTIKKYYSVQNRGMTYVHIESPINTKDKCWFVEKNGWYEDRTHS
Turning to B1, the Kd turned out to be 10 ± 5 µM.
